# Patent US20030186223A1, “Modular recombinatorial display libraries” (Dyax Corp., priority 2002, published 2003)
# Positions of bridges follow the written chain, without caps; N, C: chain ends. No end group written: not given here.
# Molecular target: T1, KDR-Fc fusion (chimeric fusion of Ig Fc region with human KDR, R & D Systems #357-KD-050) (human, UniProt P35968 20-764)
# T1 construct: Bought carrier-free from R & D Systems; also called KDR-Fc fusion protein target; KDR target; not shown: Ig Fc region
# Test: secondary library, round 1: phage display selection against KDR-Fc as before
# Details: not given
# T1 sequence (P35968 20-764, change not shown): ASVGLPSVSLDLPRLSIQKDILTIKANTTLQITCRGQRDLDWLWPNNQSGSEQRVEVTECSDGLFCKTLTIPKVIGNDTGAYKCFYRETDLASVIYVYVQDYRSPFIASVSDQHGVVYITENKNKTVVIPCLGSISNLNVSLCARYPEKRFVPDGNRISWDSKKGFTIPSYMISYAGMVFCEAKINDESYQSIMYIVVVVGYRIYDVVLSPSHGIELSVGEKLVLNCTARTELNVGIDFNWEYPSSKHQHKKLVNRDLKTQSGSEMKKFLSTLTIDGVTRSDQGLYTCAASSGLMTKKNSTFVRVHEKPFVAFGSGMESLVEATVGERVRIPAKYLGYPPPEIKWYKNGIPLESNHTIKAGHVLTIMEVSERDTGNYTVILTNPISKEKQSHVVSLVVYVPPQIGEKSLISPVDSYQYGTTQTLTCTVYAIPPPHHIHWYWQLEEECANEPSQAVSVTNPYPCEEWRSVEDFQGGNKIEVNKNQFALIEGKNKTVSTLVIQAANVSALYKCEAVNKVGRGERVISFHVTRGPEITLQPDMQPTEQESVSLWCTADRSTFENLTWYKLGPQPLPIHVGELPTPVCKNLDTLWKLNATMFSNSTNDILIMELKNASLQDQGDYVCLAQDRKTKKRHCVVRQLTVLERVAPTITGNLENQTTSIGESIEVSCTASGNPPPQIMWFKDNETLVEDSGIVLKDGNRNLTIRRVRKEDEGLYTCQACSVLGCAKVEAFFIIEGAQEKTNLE
row,Molecule,binding result
1,"SNKCDHYQSGPFGDICVSY (peptide, not shown: large carriers; small tags and cut ends, disulfide 4-16 (inferred); also: displayed on M13 phage fused to protein III via linkers) [SEQ ID NO 43 phage isolate]",binds
2,"SNKCDHYQSGPFGDVCVSY (peptide, not shown: large carriers; small tags and cut ends, disulfide 4-16 (inferred); also: displayed on M13 phage fused to protein III via linkers) [SEQ ID NO 42 phage isolate]",binds
3,"RTTCHHQISGPYGDICVKY (peptide, not shown: large carriers; small tags and cut ends, disulfide 4-16 (inferred); also: displayed on M13 phage fused to protein III via linkers) [SEQ ID NO 45 phage isolate]",binds
4,"RTTCHHQISGPFGPVCVNY (peptide, not shown: large carriers; small tags and cut ends, disulfide 4-16 (inferred); also: displayed on M13 phage fused to protein III via linkers) [SEQ ID NO 44 phage isolate]",binds

# Molecular target: T2, KDR-Fc fusion protein (Homo sapiens, UniProt P35968)
# T2 construct: purchased R & D Systems (Minneapolis, Minn.) 357-KD-050
# Test: BIAcore surface plasmon resonance binding of synthetic polypeptides to immobilized KDR-Fc
# Details: BIAcore SPR; KDR-Fc fusion immobilized on chip; synthetic polypeptide with acetyl-Ser-Gly- and -Gly-Ser flanks
# Procedure: Binding affinity of selected peptides from the various rounds of selection was tested using a BIAcore surface plasmon resonance spectrophotometer. Polypeptides selected from Tables 1, 2, and 3 were synthesized by solid phase synthesis using the sequence as shown in the tables above and an N-terminal flanking peptide, acetyl-Ser-Gly-, and a C-terminal flanking peptide, -Gly-Ser. A KDR-Fc fusion protein target was immobilized on a BIAcore chip, and the synthetic polypeptides were flowed over the chip to measure the KD of the polypeptides with respect to the KDR target.
# T2 sequence (P35968 with tags, fused parts or gaps limits assumed): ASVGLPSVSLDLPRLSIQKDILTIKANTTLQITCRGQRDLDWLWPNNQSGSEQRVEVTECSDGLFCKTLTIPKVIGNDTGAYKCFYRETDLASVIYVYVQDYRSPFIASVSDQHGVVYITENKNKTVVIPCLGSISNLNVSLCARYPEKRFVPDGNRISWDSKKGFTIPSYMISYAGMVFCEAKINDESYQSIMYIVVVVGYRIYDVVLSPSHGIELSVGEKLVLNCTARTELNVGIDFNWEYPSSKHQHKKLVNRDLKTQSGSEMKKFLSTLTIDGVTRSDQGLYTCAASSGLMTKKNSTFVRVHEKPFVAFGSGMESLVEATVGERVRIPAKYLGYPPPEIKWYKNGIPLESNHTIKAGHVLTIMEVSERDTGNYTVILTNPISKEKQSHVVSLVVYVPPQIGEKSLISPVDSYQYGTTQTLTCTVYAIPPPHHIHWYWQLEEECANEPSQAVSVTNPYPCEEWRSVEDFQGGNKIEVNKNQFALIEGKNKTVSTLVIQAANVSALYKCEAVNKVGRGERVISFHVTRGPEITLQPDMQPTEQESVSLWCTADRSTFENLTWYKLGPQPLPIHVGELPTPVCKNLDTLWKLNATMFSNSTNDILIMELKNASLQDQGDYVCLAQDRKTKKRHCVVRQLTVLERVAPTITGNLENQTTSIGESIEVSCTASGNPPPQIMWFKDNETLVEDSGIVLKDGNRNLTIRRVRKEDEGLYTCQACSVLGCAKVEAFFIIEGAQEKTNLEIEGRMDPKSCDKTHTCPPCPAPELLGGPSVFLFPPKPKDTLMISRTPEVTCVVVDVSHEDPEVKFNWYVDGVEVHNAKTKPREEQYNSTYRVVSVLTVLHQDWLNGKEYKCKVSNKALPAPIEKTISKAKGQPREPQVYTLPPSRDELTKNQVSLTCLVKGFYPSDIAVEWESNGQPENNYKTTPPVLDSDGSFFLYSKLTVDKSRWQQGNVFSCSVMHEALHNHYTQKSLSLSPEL
row,Molecule,binding to KDR target (qualitative)
1,SNKCDHYQSGPHGKICVNY (Selected library sequence) [SEQ ID NO: 23],no binding
2,SNKCDHYQSGPYGAVCLHY (Selected library sequence) [SEQ ID NO: 7],no binding
3,WQECTKVLSGPGQFECEYM (Selected library sequence) [SEQ ID NO: 24],no binding
4,WQECTKVLSGPGQFLCSYG (Selected library sequence) [SEQ ID NO: 6],no binding

# Molecular target: T1, KDR-Fc fusion (chimeric fusion of Ig Fc …)
# Test: phage display selection on KDR-Fc beads and phage ELISA screen on KDR-Fc
# Details: not given
# Procedure: The phage library was incubated with 50 μl of Trail R4 Fc fusion beads on a Labquake shaker for 1 hour at room temperature (RT). After incubation, the phage supernatant was removed and incubated with another 50 μl of Trail R4 beads. This was repeated for a total of 5 rounds of depletion, to remove non-specific Fc fusion and bead binding phage from the library. The depleted library was added to 100 μl of KDR-Fc beads and allowed to incubate on a LabQuake shaker for 1 hour at RT. Beads were then washed as rapidly as possible with 5×1 ml PBSTH using a magnetic stand (Promega) to separate the beads from the wash buffer. Phage still bound to beads after the washing were competition-eluted using soluble VEGF₁₆₅ (#100-20) purchased in carrier-free form from Peprotech (Rocky Hill, N.J.) as follows: The beads were incubated with 250 μl of VEGF (50 μg/ml,˜1 μM) overnight at room temperature (RT) on a LabQuake shaker. […]
# Once the plates were prepared, each overnight phage culture was diluted 1:1 (or to 10¹⁰ pfu if using purified phage stock) with PBS, 0.05% Tween-20, 1% BSA. […] Each plate was washed 7 times with PBST (PBS, 0.05% Tween-20), then the plates were developed with HRP substrate (˜10 minutes) and the absorbance signal (630 nm) detected with a plate reader.
row,Molecule,binding result
1,"RLDCDMVFSGPHGKICVNY (peptide, not shown: large carriers; small tags and cut ends, disulfide 4-16 (inferred); also: displayed on M13 phage fused to protein III via linkers) [SEQ ID NO 10 phage isolate]",binds
2,"AHQCHHWTSGPYGEVCFNY (peptide, not shown: large carriers; small tags and cut ends, disulfide 4-16 (inferred); also: displayed on M13 phage fused to protein III via linkers) [SEQ ID NO 12 phage isolate]",binds

# Molecular target: T1, KDR-Fc fusion (chimeric fusion of Ig Fc …)
# Test: BIAcore SPR, KDR-Fc immobilized on chip, synthetic peptide flowed over
# Details: not given
row,Molecule,Kd [µM]
1,Ac-SGRTTCHHQISGPHGKICVNYGS (cysteine pairing not given here) [SEQ ID NO 22 synthetic polypeptide],0.65
2,Ac-SGRLDCDKVFSGPYGKVCVSYGS (cysteine pairing not given here) [SEQ ID NO 49 synthetic polypeptide],1
